Test results published in patent US20050154189A1 (MAXYGEN, published 2005).

B1: Round 2 CTLA4 A-B11-5 (ligand)
chain: ITPKSATKRVKETVMLSCDYSTSTEELTSLRIYWQKDSKMVLAILPGKVQVWPEYKNRTITDMNDNPRIVILALRLSDSGTYTCVIQKPDLKGAYKLEHLTSVRLMIRADFPVPTINDLGNPSPNIRRLICSTSGGFPRPHLYWLENGEELNATNTTLSQDPETKLYMISSELDFNMTSNHSFLCLVKYGDLTVSQTFYWQESKPTPSANQHLTWTIIIPVSAFGISVIIAVILTCLTCRNAAIRRQRRENEVEMQSCSQSP
B2: Round 2 CTLA4 A-F6-9 (ligand)
chain: ITPKSVTKRVKETVMLSCDYSTSTEELTSLRIYWQKDSKMVLAILPGKVQVWPEYKNRTITDMNDNPRIVILALRLSDSGTYTCVIQKPDLKGAYKLEHLTSVRLMIRADFPVPTINDLGNPSPNIRRLICSTSGGFPRPHLYWLENGEELNATNTTLSQDPETKLYMISSELDFNMTSNHSFLCLVKYGDLTVSQTFYWQESKPTPSANQHLTWTIIIPVSAFGISVIIAVILTCLTCRNAAIRRQRRENEVEMQSCSQSP
B3: Round 2 CTLA4 A-G8-1 (ligand)
chain: ITPKSVTKRVKETVMLSCDYNTSTEELTSLRIYWQKDSKMVLAILPGKVQVWPEYKNRTITDMNDNPRIVILALPLSDSGTYTCVIQKPDLKGAYKLEHLTSVRLMIRADFPVPTINDLGNPSPNIRRLICSTSGGFPRPHLYWLENGEELNATNTTLSQDPETKLYMISSELDFNMTSNHSFLCLVKYGDLTVSQTFYWQESKPTPSANQHLTWTIIIPVSAFGISVIIAVILTCLTCRNAAIRRQRRENEVEMQSCSQSP
B4: Round 1 CTLA4BP-5 (ligand)
chain: VIHVTKEVKEVATLSCGHNVSVEELAQTRIHWQKEKKMVLTMMSGDMNIWPEYKNRTIFDITNNLSIVILALRPSDEGTYECVVLKYEKDAFKREHLAEVTLSVKADFPTPSISDFEIPPSNIRRIICSTSGGFPEPHLSWLENGEELNAINTTVSQDPGTELYTVSSKLDFNMTTNHSFMCLIKYGHLRVNQTFNWNTPKQEHFPDNLLPSWAITLISVNGIFVICCLTYCFAPRCRERRRNERLRRESVRPV
notes: also called R1-5; R1 CTLA-4BP-5
B5: Round 1 CTLA4BP-11 (ligand)
chain: VIHMTKEVKEVATLSCGHNVSVEELAQTRIYWQKEKKMVLTMMSGDMNIWPEYKNRTIFDITNNLSIVILALRPSDEGTYECVVLKYEKDAFKREHLAEVMLSVKADFPTPSITDFEIPPSNIRRIICSTSGGFPEPHLFWLENGEELNAINTTVSQDPETELYAVSSKLDFNMTTNHSFMCLIKYGHLRVNQTFNWNTTKQEHFPDNLLPSWAITLISVNGIFVICCLTHCFAPRCRERRRNERLRRESVHPV
notes: also called R1-11; R1 CTLA-4BP-11
B6: Round 1 CTLA4BP-13 (ligand)
chain: VIHVTKEVKEVATLSCGHNVSVEELAQTRIYWQKEKKMVLTMMSGDMNIWPEYKNRTIFDITNNLSIVILALRPSDEGTYECVVLKYEKDAFKREHLAEVTLSVKADFPTPSISDFEIPTSNIRRIICSTSGGFPEPHLFGLENGEEINAINTTASQDPETELYTVSSKLDFNMTPNRSFVCLIKYGHLRVNQTFNWNTPKQEHFPDNLLPSWAITLISANGIFVICCLTYCFAPRCRERKSNERLRRESVRPV
notes: also called R1-13; R1 CTLA-4BP-13
B7: Round 1 CTLA4BP-27 (ligand)
chain: VIHVTKEVKEVATLSCGLNVSVEELAQTRIYWQKEKKMVLTMMSGDMNIWPEYKNRTIFDITNNLSIVILALRPSDEGTYECVVLKYEKDAFKREHLAEVMLSVKADFPTPSISDFEIPPSNIRRIICSTSGGFPEPHLSWLENGEELNAINTTVSQDPETELYTVSSKLDFNMTANHSFVCLIKYGHLRVNQTFNWNTPKQEHFPDNLLPSWAITLISVNGIFVICCLTYCFAPRCRERRRNETLRRESVRPV
notes: also called R1-27; R1 CTLA-4BP-27
B8: Round 2 CTLA4BP 2x1-b12 (ligand)
chain: VIHMTKEVKEVATLSCGHNVSVEELAQTRIYWQKEKKMVLTMMSGDMNIWPEYKNRTIFDITNNLSIVILALRPSDEGTYECVALKYEKDAFKQEHLAEVTLSVKADFPTPSISDFEIPPSNIRRIICSTSGGFPEPRLAWMEDGEELNAINTTVSQDPETELYTVSSKLDFNMTANHSFMCLIKYGHLRVNQTFNWNTPKQEHFPDNLLPSWAITLISVNGIFVICCLTYCFAPRCRERRRNERLRRESVCPV
B9: Round 2 CTLA4BP 2x1-c4 (ligand)
chain: VIHVTKEVKEVATLPCGHNVSVEELAQTRIHWQKEKKMVLTMMSGDMNIWPEYKNRTIFDITNNLSIVILALRPSDEGTYECVVLKYEKDAFKREHLAEVMLSVKADFPTPSITDFEIPPSNIRRIICSTSGGFPEPHLFWLENGEELNAINTTVSQDPGTELYAVSSKLDFNMTTNHNFMCLIKYGHLRVNQTFNWNTPKQEHFPDNLLPSWAITLISVNGIFVICCLTYCFAPRCRERRRNERLRRESVRPV
B10: Round 2 CTLA4BP 2x1-f10 (ligand)
chain: VIHVTKEVKEVATLSCGHNVSVEELAQTRIHWQKEKKMVLTMMSGDMNIWPEYKNRTIFDITNNLSIVILALRPSDEGTYECVVLKYEKDAFKREHLAEVMLSVKADFPTPSITDFEIPPSNIRRIICSTSGGFPEPRLAWMEDGEELNAINTTVSQDPGTELYAVSSKLDFNMTTNHSFMCLIKYGHLRVNQTFNWNTPKQEHFPDNLLPSWAITLISVNGISVICCLTYCFAPRCRERRRNERLRRESVCPV
B11: Round 2 CTLA4BP 2x1-g8 (ligand)
chain: VIHVTKEVKEVATLSCGHNVSVEELAQTRIHWQKEKKMVLTMMSGDMNIWPEYKNRTIFDITNNLSVVILALRPSDEGTYECVVLKYEKDAFKREHLAEVTLSVKADFPTPSITDFEIPPSNIRRIICSTSGGFPEPHLSWLENGEELNAINTTVSQDPGTELYTVSSKLDFNMTTNRSFVCLIKYGHLRVNQTFNWNTPKQEHFPDNLLPSWAITLISVNGIFVICCLTYCFAPRCRERKSNERLRRESVRPV
B12: Round 2 CTLA4BP 2x1-h12 (ligand)
chain: VIHVTKEVKEVATLSCGLNVSVEELAQTRIHWQKEKKMVLTMMSGDMNIWPEYKNRTIFDITNNLSIVILALRPSDEGTYECVVLKYEKDAFKREHLAEVMLSVKADFPTPSITDFEIPPSNIRRIICSTSGGFPEPHLSWLENGEELNAINTTVSQDPGTELYTVSSKLDFNMTTNHSFMCLIKYGHLRVNQTFNWNTPKQEHFPDNLLPSWAITLISANGIFVICCLTYCFAPRCRERKSNERLRRESVCPV
B13: Round 2 CTLA4BP 2x2-f1 (ligand)
chain: VIHVTKEVKEVATLSCGHNVSVEELAQTRIHWQKEKKMVLTMMSGDMNIWPEYKNRTIFDITNNLSIVILALRLSDEGTYECVVLKYEKDAFKREHLAEVTLSVKADFPTPSISDFEIPTSNIRRIICSTSGGFPEPHLFWLENGEELNAINTTASQDPETELYTVSSKLDFNMTTNRSFVCLIKYGHLRVNQTFNWNTPKQEHFPDNLLPSWAITLISVNGIFVICCLTYCFAPRCRERRRNERLRRESVRPV
B14: Round 2 CTLA4BP 2x2-f12 (ligand)
chain: VIHVTKEVKEVATLSCGHNVSVEELAQTRIHWQKEKKMVLTMMSGDMNIWPEYKNRTIFDITNNLSIVILALRPSDEGTYGCVVLEYEKDAFKREHLAEVMLSVKADFPTPSISDFEIPPSNIRRIICSTSGGFPEPHLSWLENGEELNAINTTVSQDPETELYAVSSKLDFNMTTNHSFMCLIKYGHLRANQTFNWNTPKQEHFPDNLLPSWAITLISVNGIFVICCLTYCFAPRCRERRRNERLRRESVRPV
B15: Round 2 CTLA4BP 2x4-h11 (ligand)
chain: VIHVTKEVKEVATLSCGHNVSVEELAQTRIYWQKEKKMVLTMMSGDMNIWPEYKNRTIFDITNNLSIVILALRPSDEGTYECVVLEYEKDAFKREHLAEVMLSVKADFPTPSISDFEIPPSNIRRIICSTSGGFPEPHLSWLENGEELNAINTTVSQDPGTELYAVSSKLDFNMTTNHSFMCLIKYGHLRVNQTFNWNTPKQEHFPDNLLPSWAITLISVNGIFVICCLAYCFAPRCRGRRRNERLRRESVRPV
B16: Round 2 CTLA4BP 5x1-d7 (ligand)
chain: VIHVTKEVKEVATLSCGHNVPVEELAQTRIYWQKEKKMVLTMMSGDMNIWPEYKNRTIFDITNNLSIVILALRPSDEGTYGCVVLEYEKDAFKREHLAEVMLSVKADFPTPSITDLEIPPSNIRRIICSTSGGFPEPHLFWLENGEELNAINTTASQDPETELYAVSSKLDFNMTTNHSFMCLIKYGHLRVNQTFNWNTPKQEHFPDNLLPSWAITLISANGIFVICCLTYCFAPRCRERRRNERLRRESVHPV
B17: Round 2 CTLA4BP 5x1-f1 (ligand)
chain: VIHVTKEVKEVATLSCGLNVSVEELAQTRIYWQKEKKMVLTMMSGDMNIWPEHKNRTIFDITNNLSIVILALRPSDEGTYECVVLKYEKDAFKREHLAEVTLSVKADFPTPSITDFEIPPSNIRRIICSTSGGFPEPHLFWLENGEELNAINTTASQDPETELYTVSSKLDFNMTANHSFVCLIKYGHLRVNQTFNWNTPKQEHFPDNLLPSWAITLISVNGIFVICCLTYCFAPRCRERRRNETLRRESVRPV
B18: Round 2 CTLA4BP 5x2-b7 (ligand)
chain: VIHVTKEVKEVATLSCGHNVSVEELAQTRIHWQKEKKMVLTMMSGDMNIWPEYKNRTIFDITNNLSIVILALRPSDEGTYECVVLKYEKDAFKREHLAEVTLSVKADFPTPSITDFEIPPSNIRRIICSTSGGFPEPHLSWLENGEELNAINTTVSQDPGTELYTVSSKLDFNMTANHSFVCLIKYGHLRVNQTFNWNTPKQEHFPDNLLPSWAITLISANGIFVICCLTYCFAPRCRERRRNERLRRESVRPV
B19: Round 2 CTLA4BP 5x2-d7 (ligand)
chain: VIHMTKEVKEVATLSCGLNVSVEELAQTRIHWQKEKKMVLTMMSGDMNIWPEYKNRTIFDITNNLSIVILALRPSDEGTYECVVLKYEKDAFKREHLAEVMLSVKADFPTPSISDFEIPPSNIRRIICSTSGGFPEPHLSWLENGEELNAINTTVSQDPETGLYTVSSKLDFNMTTNHSFMCLIKYGHLRVNQTFNWNTPKQEHFPDNLLPSWAITLISVNGIFVICCLTYCFAPRCRERRRNERLRRESVRPV
B20: Round 2 CTLA4BP 5x2-e12 (ligand)
chain: VIHVTKEVKEVATLSCGHNVSVEELAQTRIHWQKEKKMVLTMMSGGMNIWPEYKNRTIFDITNNLSIVILALRPSDEGTYECVVLKYEKDAFKREHLAEVTLSVKADFPTPSISDFEIPTSNIRRIICSTSGGFPEPHLSWLENGEELNAISTTVSQDPGTELYAVSSKLDFNMTTNRSFVCLIKYGHLRVNQTFNWNTTKQEHFPDNLLPSWAITLISVNGIFVICCLTYCFAPRCRERRRNERLRRESVRPV

Biological target: T1, Soluble CTLA-4-Ig (human, UniProt P16410 36-161, FITC-conjugated in the two-colour FACS assays; unlabelled and detected with FITC goat anti-human IgG in the concentration-dependent assay)
T1 construct: extracellular domain; Bought from R&D Systems; also called sCTLA-4-Ig; CTLA-4-Ig Fc; not shown: Fc portion of human IgG1
Test: two-colour FACS profile on transfected cells; score of preference for CTLA-4-Ig over CD28-Ig vs WT hB7-1

T1 sequence (P16410 36-161): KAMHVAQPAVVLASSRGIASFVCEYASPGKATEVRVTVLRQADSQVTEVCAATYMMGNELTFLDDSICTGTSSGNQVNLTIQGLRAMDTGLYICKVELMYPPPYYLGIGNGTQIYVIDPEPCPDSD

Binder | Binding Score
B1 | 1
B2 | 1
B3 | 1
B4 | 2
B5 | 1
B6 | 1
B7 | 1
B8 | 1
B9 | 1
B10 | 1
B11 | 1
B12 | 1
B13 | 1
B14 | 1
B15 | 0
B16 | 1
B17 | 1
B18 | 1
B19 | 1
B20 | 0
